In general, Kd refers to the constant that tells how readily two partners part at equilibrium. Low values mean higher affinity, high ones lower affinity.

Holding throughout (test): ITC
A general note: ITC needs no label: the signal is the heat of the interaction.

Series [1] has as its target T1, HRFYRLAN peptide (RNA dependent RNA polymerase) (SARS-CoV-2, UniProt P0DTD1).
T1 chain: HRFYRLAN

The target of series [2] is T2, NRKRISN peptide (spike RBD) (SARS-CoV-2, UniProt P0DTC2).
T2 chain: NRKRISN

The target in series [3] is T3, YRLFRK peptide (spike RBD) (SARS-CoV-2, UniProt P0DTC2).
T3 chain: YRLFRK

As to GGTTGGTGTGGTTGG (structured_DNA) [BC 007], the figures for the Kd in series [1] and in series [3] were 54.7 ± 0.6 µM and 86.7 ± 1.2 µM, respectively. Also, in series [2], the binding result was “no binding”.

Values taken from publication PMC7605794.
